Measurements taken from US20230068783A1 (TAVOTEK BIOTHERAPEUTICS HONG KONG, published 2023).

T1: human IL-1α (human, UniProt P01583 113-271)
T1 construct: Purified recombinant protein
T1 sequence (looked up): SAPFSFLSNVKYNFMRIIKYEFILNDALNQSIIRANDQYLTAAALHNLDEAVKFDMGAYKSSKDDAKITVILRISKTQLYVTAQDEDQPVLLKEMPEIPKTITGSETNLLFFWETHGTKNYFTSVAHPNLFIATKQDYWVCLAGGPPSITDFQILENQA

T2: IL-1β receptor IL-1R on the surface of HEK-Blue IL-1β cells (UniProt P14778 18-569, limits assumed)
T2 sequence (looked up): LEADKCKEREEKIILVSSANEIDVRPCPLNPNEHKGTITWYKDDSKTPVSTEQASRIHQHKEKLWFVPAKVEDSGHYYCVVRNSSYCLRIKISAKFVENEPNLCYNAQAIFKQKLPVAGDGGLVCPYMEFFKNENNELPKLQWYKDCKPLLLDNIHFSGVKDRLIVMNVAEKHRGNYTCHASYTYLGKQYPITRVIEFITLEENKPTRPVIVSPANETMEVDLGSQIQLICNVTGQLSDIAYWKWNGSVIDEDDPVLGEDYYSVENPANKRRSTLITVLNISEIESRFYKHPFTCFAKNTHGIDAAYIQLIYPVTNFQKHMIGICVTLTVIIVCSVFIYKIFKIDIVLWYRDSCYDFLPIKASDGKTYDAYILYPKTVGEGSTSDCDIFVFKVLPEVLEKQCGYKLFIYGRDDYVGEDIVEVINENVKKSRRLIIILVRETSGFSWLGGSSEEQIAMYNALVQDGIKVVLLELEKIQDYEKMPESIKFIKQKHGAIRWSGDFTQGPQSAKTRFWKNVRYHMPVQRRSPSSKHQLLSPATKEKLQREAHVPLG

T3: mouse IL-1β (mouse, UniProt P10749 118-269)
T3 sequence (looked up): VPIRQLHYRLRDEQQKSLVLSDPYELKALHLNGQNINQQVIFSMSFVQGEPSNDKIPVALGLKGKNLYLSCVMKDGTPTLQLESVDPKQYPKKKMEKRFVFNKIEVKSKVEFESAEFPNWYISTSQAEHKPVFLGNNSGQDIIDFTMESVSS

B1: Rhesus monkey IL-1β (ligand, UniProt P48090 117-269, looked up)
chain: APVRSLHCTLRDAQLKSLVMSGPYELKALHLQGQDLEQQVVFSMSFVQGEESNDKIPVALGLKAKNLYLSCVLKDDKPTLQLESVDPKNYPKKKMEKRFVFNKIEINNKLEFESAQFPNWYISTSQAENMPVFLGGTRGGQDITDFTMQFVSS

Columns and labels:
human IL-1α = target: T1, human IL-1α; assay: ELISA with purified recombinant protein
Method: To evaluate the binding specificity, cytokines homologous to IL-1β such as IL-1α were evaluated for binding to humanized antibodies in ELISA-based binding assay with purified recombinant protein.

[1] = target: T4, recombinant human IL-1β (R&D systems) (human, UniProt P01584 117-269); assay: cell-based or functional assay
Rhesus monkey IL-1β [2] = target: B1; assay: cell-based or functional assay
[3] = target: T2, IL-1β receptor IL-1R on the surface of …; assay: cell-based or functional assay
mouse IL-1β = target: T3, mouse IL-1β; assay: ELISA, plate coated with mouse IL-1β
Method: (§1) By hybridoma screening, TAVO304 was identified as a mouse anti-human IL-1β antibody. ELISA-based binding assay was employed to evaluate TAVO304 binding to recombinant human IL-1β. In this assay, 1 μg/ml recombinant human IL-1β (R&D systems) were coated on ELISA plate. Increasing concentrations of TAVO304 antibodies were applied on the plate and their binding to the recombinant human IL-1P were detected by HRP-conjugated anti-mouse secondary antibody.
(§2) The binding of TAVO304 to mouse and Rhesus monkey IL-1β were also evaluated in similar ELISA assay by coating the plate with mouse and Rhesus monkey IL-1β respectively.

Rhesus monkey IL-1β [4] = target: B1; assay: ELISA, plate coated with Rhesus monkey IL-1β
Method: as §1, §2

[5] = target: T4, recombinant human IL-1β (R&D systems); assay: ELISA, 1 µg/ml recombinant human IL-1β coated, HRP anti-mouse secondary antibody
Method: as §1

| Binder | binding result (human IL-1α) | IC50 of blocking human IL-1β-mediated IL-6 release from MRC-5 cells [1] | IC50 of neutralizing human IL-1β driven reporter gene expression, HEK-Blue IL-1β reporter assay [1] | IC50 of neutralizing rhesus monkey IL-1β driven reporter gene expression, HEK-Blue IL-1β reporter assay (Rhesus monkey IL-1β [2]) | EC50 of reporter gene (SEAP) expression in HEK-Blue IL-1β reporter assay [3] | binding result (mouse IL-1β) | EC50 (Rhesus monkey IL-1β [4]) | EC50 [5] | fold potency against reference antibody refAb-1 in IL-1β inhibition, HEK-Blue IL-1β reporter assay [1] |
| --- | --- | --- | --- | --- | --- | --- | --- | --- | --- |
| TAVO7376 (humanized IgG1 antibody, 304VH1 with 304VL1) (antibody, V domains shown, Humanized IgG1) VH: EVQLVESGGGLVQPGGSLRLSCAASGFTFSSFGMHWVRQAPGKGLEWVAYISIGSYTVHYADSVKGRFTISRDNAKNSLYLQMNSLRDEDTAVYYCVRDDYDVTDYTMDYWGQGTTVTVSS VL: DIQMTQSPSSLSASVGDRVTITCKSSQSLLNSRTRKNYLAWYQQKPGKAPKLLIYWASTRESGVPSRFSGSGSGTDFTLTISSLQPEDFATYYCKQTYNFPTFGQGTKLEIKR | no binding (tested: 1 ug/mL) | ~0.05 µg/mL | ~0.09 µg/mL | ~0.018 µg/mL | – | – | – | – | – |
| TAVO7377 (humanized IgG1 antibody, 304VH1 with 304VL2) (antibody, V domains shown, Humanized IgG1) VH: EVQLVESGGGLVQPGGSLRLSCAASGFTFSSFGMHWVRQAPGKGLEWVAYISIGSYTVHYADSVKGRFTISRDNAKNSLYLQMNSLRDEDTAVYYCVRDDYDVTDYTMDYWGQGTTVTVSS VL: DIQMTQSPSSLSASVGDRVTMTCKSSQSLLNSRTRKNYLAWYQQKPGKAPKLLIYWASTRESGVPSRFSGSGSGTDFTLTISSVQPEDLATYYCKQTYNFPTFGQGTKLEIKR | no binding (tested: 1 ug/mL) | ~0.05 µg/mL | ~0.09 µg/mL | ~0.018 µg/mL | – | – | – | – | – |
| B1 | – | – | – | – | 0.00016 µg/mL | – | – | – | – |
| mouse monoclonal anti-human IL-1β antibody TAVO304 (antibody, V domains shown, Mouse monoclonal antibody from hybridoma screening) VH: DVQLVESGGGLVQPGGSRKLSCAASGFTFSSFGMHWVRQAPEKGLEWVAYISIGSYTVHYADTVKGRFTISRDNPKNTLFLQMTSLRSEDTAMYYCVRDDYDVTDYTMDYWGQGTSVTVSS VL: DIVMSQSPSSLAVSTGEKVTMSCKSSQSLLNSRTRKNYLAWYQQKPGQSPKLLIYWASTRESGVPDRFTGSGSGTDFTLTIGSVQAEDLAVYYCKQTYNFPTFGGGTKLEIK | – | – | 0.12 µg/mL | 0.0036 µg/mL | – | no binding | 0.0122 µg/mL | 0.0036 µg/mL | > 6 fold |
